Reference: article PMC6927759

Tests used:
[1] = biological target: human IL-13 (Homo sapiens) (UniProt P35225); assay: SPR
[2] = biological target: anti-IL-13 IgG4 variant VH Y98L (human (humanized antibody)); assay: SPR

kon [1] [M⁻¹ s⁻¹] | Kd [1] [pM] | koff [1] [s⁻¹] | Kd [2] [pM] | koff [2] [s⁻¹] | kon [2] [M⁻¹ s⁻¹] | Substance
2.16e+06 | – | – | – | – | – | anti-IL-13 IgG4 (lebrikizumab), parent (antibody)
2.08e+06 | < 10 | < 0.0001 | – | – | – | anti-IL-13 IgG4 variant VH Y97L (antibody)
– | 3320 | 0.00331 | – | – | – | anti-IL-13 IgG4 variant VH Y100Q (antibody)
– | – | – | 75.3 | 8.76e-05 | 1.16e+06 | human IL-13 (from UniProt P35225 25-146) (ligand)
